Changes are numbered by the printed parent chain. Names may count otherwise. Read-outs that look alike come from different tables or passages of the source. Blank lines part the entries; values can stand above or below the binder they belong to.
Legend:
FLAG-tagged human APRIL [1] = molecular target: T1, FLAG-tagged human APRIL (human, UniProt O75888 105-250, limits assumed); test: FLAG-APRIL ELISA after 10 min at 65 °C, antibody at 1 µg/ml
T1 construct: also called FLAG-tagged APRIL; FLAG-APRIL; not shown: FLAG tag
T1 sequence (looked up): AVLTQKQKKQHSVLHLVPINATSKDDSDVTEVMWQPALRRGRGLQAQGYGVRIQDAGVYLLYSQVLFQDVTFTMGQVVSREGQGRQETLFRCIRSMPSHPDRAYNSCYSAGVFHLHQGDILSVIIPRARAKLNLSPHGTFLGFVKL
Description: (§1) The plasmids encoding the VH and VL constructs were mixed in a 1:3 ratio (4 μg in total) and transiently expressed by transfection into HEK293T human embryonic kidney cells (HEK293T/17, ATCC-CRL-11268), using Lipofectamine 2000 transfection reagent (Invitrogen) following the manufacturer's instructions. Cell supernatants were harvested after 5 days and tested for expression of antibody and binding to APRIL using an enzyme-linked immuno assay (ELISA). In these ELISAs, all incubation steps were followed by a wash step with PBST (PBS with 0.01% Tween 20). Maxisorb 96-wells plates (Nunc) were coated with 0.5 μg/ml anti-FLAG (Sigma) or anti-IgG4 (Jackson laboratories) and incubated overnight at 4° C. Subsequently the anti-FLAG coated 96-wells plates were incubated with FLAG-tagged human APRIL for 1 hour at room temperature. Next, supernatants and dilutions thereof were incubated for 1 hour, which was followed by an incubation of 1 hour with mouse anti-human IgG HRP-conjugate (Southern Biotechnology).
(§2) To determine the effect of humanization on the stability of the antibodies, humanized antibodies were exposed to a range of temperatures for 10 minutes. Purified antibodies were diluted to 3.16 μg/ml and dilutions thereof in PBS. Next, these solutions were exposed to 65° C. or 70° C. and residual binding after heat treatment of the antibodies was measured using the FLAG-tagged APRIL ELISA assay as described before (see Table 6).
(§3) In addition, the stability of the substituted humanized antibodies was improved as determined using thermostability studies as described in Example 3 (see Table 9).

FLAG-tagged human APRIL [2] = molecular target: T1, FLAG-tagged human APRIL; test: FLAG-APRIL ELISA after 10 min at 70 °C, antibody at 1 µg/ml
FLAG-tagged human APRIL [3] = molecular target: T1, FLAG-tagged human APRIL; test: FLAG-APRIL ELISA after 10 min at 65 °C, antibody at 3.16 µg/ml
Description: as §1, §2, §3

FLAG-tagged human APRIL [4] = molecular target: T1, FLAG-tagged human APRIL; test: FLAG-APRIL ELISA after 10 min at 70 °C, antibody at 3.16 µg/ml
FLAG-tagged human APRIL [5] = molecular target: T1, FLAG-tagged human APRIL; test: FLAG-APRIL ELISA after 10 min at 65 °C, antibody at 0.316 µg/ml
Description: as §1, §2, §3

FLAG-tagged human APRIL [6] = molecular target: T1, FLAG-tagged human APRIL; test: FLAG-APRIL ELISA after 10 min at 70 °C, antibody at 0.316 µg/ml
FLAG-tagged human APRIL [7] = molecular target: T1, FLAG-tagged human APRIL; test: ELISA: FLAG-tagged human APRIL captured on anti-FLAG plate, purified antibody titrated
FLAG-tagged human APRIL [8] = molecular target: T1, FLAG-tagged human APRIL; test: as above; remark: listed apart in the source
FLAG-tagged human APRIL [9] = molecular target: T1, FLAG-tagged human APRIL; test: competition ELISA: antibody premixed with FLAG-tagged APRIL, added to coated Fc-BCMA, anti-FLAG HRP
Description: Again, plasmids encoding the VH and VL constructs were mixed in a 1:3 ratio (32 μg) and transiently expressed by transfection into (8*10⁶) HEK293T human embryonic kidney cells (HEK293T), using Lipofectamine 2000 transfection reagent (Invitrogen) according to the manufacturer's instructions. Supernatants were harvested (10 ml) and antibodies were purified using MabSelect Sure Protein A resin according to the manufacturer's instructions (GE Healthcare). Buffer was exchanged for PBS using Zeba desalting columns (Thermo Scientific). The concentration of purified antibodies was determined based on OD280 (Nanodrop ND-1000). The binding of the purified antibodies to APRIL was established using the above described APRIL ELISA. The blocking capability of the humanized antibodies with BCMA and TACI receptors, was tested in a competition ELISA. In these ELISAs, all incubation steps were followed by a wash step with PBST (PBS with 0.01% Tween 20). Maxisorb 96-wells plates (Nunc) were coated with 0.5 μg/ml Fc-BCMA (R&D Systems) or Fc-TACI (R&D Systems) and incubated overnight at 4° C. […] Reactions were stopped with 100 μl 0.5 M H2504 and absorbances were measured at 450 and 620 nm. Calculated EC₅₀ and IC₅₀ representing the concentration at which 50% of the total binding signal or blocking is observed are represented in Table 5. […]

FLAG-tagged human APRIL [10] = molecular target: T1, FLAG-tagged human APRIL; test: as above; remark: listed apart in the source
Description: (§4) A subset of humanized antibodies described above was selected for further analyses. Again, plasmids encoding the VH and VL constructs were mixed in a 1:3 ratio (32 μg) and transiently expressed by transfection into (8*10⁶) HEK293T human embryonic kidney cells (HEK293T), using Lipofectamine 2000 transfection reagent (Invitrogen) according to the manufacturer's instructions. Supernatants were harvested (10 ml) and antibodies were purified using MabSelect Sure Protein A resin according to the manufacturer's instructions (GE Healthcare). Buffer was exchanged for PBS using Zeba desalting columns (Thermo Scientific). The concentration of purified antibodies was determined based on OD280 (Nanodrop ND-1000). The binding of the purified antibodies to APRIL was established using the above described APRIL ELISA. The blocking capability of the humanized antibodies with BCMA and TACI receptors, was tested in a competition ELISA. In these ELISAs, all incubation steps were followed by a wash step with PBST (PBS with 0.01% Tween 20). Maxisorb 96-wells plates (Nunc) were coated with 0.5 μg/ml Fc-BCMA (R&D Systems) or Fc-TACI (R&D Systems) and incubated overnight at 4° C. Next, humanized antibodies and dilutions thereof were incubated, premixed with FLAG-tagged APRIL, for 1 hour, which was followed by an incubation of 1 hour with anti-FLAG HRP-conjugate (Sigma). Immunoreactivity was visualized with 100 μl TMB Stabilized Chromagen (Invitrogen). Reactions were stopped with 100 μl 0.5 M H2504 and absorbances were measured at 450 and 620 nm. Calculated EC₅₀ and IC₅₀ representing the concentration at which 50% of the total binding signal or blocking is observed are represented in Table 5.
The antibodies were tested for binding, blockade, and stability as described before.

FLAG-tagged human APRIL [11] = molecular target: T1, FLAG-tagged human APRIL; test: FLAG-APRIL ELISA after 10 min at 65 °C, antibody at 1 µg/ml; remark: listed apart in the source
Description: as §1, §2

FLAG-tagged human APRIL [12] = molecular target: T1, FLAG-tagged human APRIL; test: FLAG-APRIL ELISA after 10 min at 70 °C, antibody at 1 µg/ml; remark: listed apart in the source
Description: as §1, §2

FLAG-tagged human APRIL [13] = molecular target: T1, FLAG-tagged human APRIL; test: FLAG-APRIL ELISA after 10 min at 65 °C, antibody at 3.16 µg/ml; remark: listed apart in the source
Description: as §1, §2

FLAG-tagged human APRIL [14] = molecular target: T1, FLAG-tagged human APRIL; test: FLAG-APRIL ELISA after 10 min at 70 °C, antibody at 3.16 µg/ml; remark: listed apart in the source
Description: as §1, §2

FLAG-tagged human APRIL [15] = molecular target: T1, FLAG-tagged human APRIL; test: FLAG-APRIL ELISA after 10 min at 65 °C, antibody at 0.316 µg/ml; remark: listed apart in the source
Description: as §1, §2

FLAG-tagged human APRIL [16] = molecular target: T1, FLAG-tagged human APRIL; test: FLAG-APRIL ELISA after 10 min at 70 °C, antibody at 0.316 µg/ml; remark: listed apart in the source
Description: as §1, §2

FLAG-tagged human APRIL [17] = molecular target: T1, FLAG-tagged human APRIL; test: ELISA: FLAG-tagged human APRIL captured on anti-FLAG plate, purified antibody titrated; remark: listed apart in the source
Description: as §1
as §4, with “(Sigma).” for “(Sigma). Immunoreactivity was visualized with 100 μl TMB Stabilized Chromagen (Invitrogen). Reactions were stopped with 100 μl 0.5 M H2504 and absorbances were measured at 450 and 620 nm. Calculated EC₅₀ and IC₅₀ representing the concentration at which 50% of the total binding signal or blocking is observed are represented in Table 5.”

FLAG-tagged human APRIL [18] = molecular target: T1, FLAG-tagged human APRIL; test: competition ELISA: antibody premixed with FLAG-tagged APRIL, added to coated Fc-BCMA, anti-FLAG HRP; remark: listed apart in the source
Description: A subset of humanized antibodies described above was selected for further analyses. Again, plasmids encoding the VH and VL constructs were mixed in a 1:3 ratio (32 μg) and transiently expressed by transfection into (8*10⁶) HEK293T human embryonic kidney cells (HEK293T), using Lipofectamine 2000 transfection reagent (Invitrogen) according to the manufacturer's instructions. Supernatants were harvested (10 ml) and antibodies were purified using MabSelect Sure Protein A resin according to the manufacturer's instructions (GE Healthcare). Buffer was exchanged for PBS using Zeba desalting columns (Thermo Scientific). The concentration of purified antibodies was determined based on OD280 (Nanodrop ND-1000). The binding of the purified antibodies to APRIL was established using the above described APRIL ELISA. The blocking capability of the humanized antibodies with BCMA and TACI receptors, was tested in a competition ELISA. In these ELISAs, all incubation steps were followed by a wash step with PBST (PBS with 0.01% Tween 20). […] Reactions were stopped with 100 μl 0.5 M H2504 and absorbances were measured at 450 and 620 nm. Calculated EC₅₀ and IC₅₀ representing the concentration at which 50% of the total binding signal or blocking is observed are represented in Table 5.

- % residual binding after heat treatment (room temperature = 100%) (FLAG-tagged human APRIL [1]): 46.1%
- % residual binding after heat treatment (room temperature = 100%) (FLAG-tagged human APRIL [2]): 38.3%
- % residual binding after heat treatment (room temperature = 100%) (FLAG-tagged human APRIL [3]): 59.9%
- % residual binding after heat treatment (room temperature = 100%) (FLAG-tagged human APRIL [4]): 38%
- % residual binding after heat treatment (room temperature = 100%) (FLAG-tagged human APRIL [5]): 71%
- % residual binding after heat treatment (room temperature = 100%) (FLAG-tagged human APRIL [6]): 63%
- EC50 (FLAG-tagged human APRIL [7]): 1.29 nM
- EC50 (FLAG-tagged human APRIL [8]): 1.29 nM
- IC50 (FLAG-tagged human APRIL [9]): 2.63 nM
- IC50 (FLAG-tagged human APRIL [10]): 2.63 nM
B1: VH14_1.VL15 (antibody, human IgG4, V domains shown)
VH: QVQLVQSGAEVKKPGASVKVSCKASGYTFTSYVMHWVRQAPGQGLEWMGYINPYNDAPKYNEKFKGRVTMTSDTSASTAYMELSSLRSDDTAVYYCARGLGYALYYAMDYWGQGTTVTVSS
VL: DIVMTQSPSTLSASVGDRVTITCKASQNVGNNVAWYQQKPGKAPKLLISSASNRDSGVPSRFSGSGSGTEFTLTISSLQPDDFATYFCQQYNIYPFTFGQGTKLEIK
notes: VH14 with R72S; rest is human IgG4 (S241P, Kabat) and human kappa; also called 14_1.15; antibody 14_1.15

- % residual binding after heat treatment (room temperature = 100%) (FLAG-tagged human APRIL [11]): 55.1%
- % residual binding after heat treatment (room temperature = 100%) (FLAG-tagged human APRIL [12]): 62.4%
- % residual binding after heat treatment (room temperature = 100%) (FLAG-tagged human APRIL [13]): 63.1%
- % residual binding after heat treatment (room temperature = 100%) (FLAG-tagged human APRIL [14]): 59.1%
- % residual binding after heat treatment (room temperature = 100%) (FLAG-tagged human APRIL [15]): 74.6%
- % residual binding after heat treatment (room temperature = 100%) (FLAG-tagged human APRIL [16]): 82%
- EC50 (FLAG-tagged human APRIL [17]): 121 nM
- IC50 (FLAG-tagged human APRIL [18]): 4.3 nM
B2: VH11.VL15 (antibody, human IgG4 S228P, kappa, V domains shown)
VH: B1 VH with G44R, M70I, S72R, D89E
VL: DIVMTQSPSTLSASVGDRVTITCKASQNVGNNVAWYQQKPGKAPKLLISSASNRDSGVPSRFSGSGSGTEFTLTISSLQPDDFATYFCQQYNIYPFTFGQGTKLEIKR
notes: Humanized IgG4 (S241P, Kabat) with human kappa, from HEK293T; also called 11.15

- % residual binding after heat treatment (room temperature = 100%) (FLAG-tagged human APRIL [11]): 8.4%
- % residual binding after heat treatment (room temperature = 100%) (FLAG-tagged human APRIL [12]): 4.9%
- % residual binding after heat treatment (room temperature = 100%) (FLAG-tagged human APRIL [13]): 27.1%
- % residual binding after heat treatment (room temperature = 100%) (FLAG-tagged human APRIL [14]): 6.7%
- % residual binding after heat treatment (room temperature = 100%) (FLAG-tagged human APRIL [15]): 13.7%
- % residual binding after heat treatment (room temperature = 100%) (FLAG-tagged human APRIL [16]): 11.2%
- EC50 (FLAG-tagged human APRIL [7]): 0.16 nM
- EC50 (FLAG-tagged human APRIL [8]): 0.16 nM
- IC50 (FLAG-tagged human APRIL [9]): 0.46 nM
- IC50 (FLAG-tagged human APRIL [10]): 0.46 nM
B3: hAPRIL.01A (antibody, mouse IgG1, kappa, V domains shown)
VH: EVQLQQSGPELVKPGASVKMSCKASGYTFTSYVMHWVKQKPGQGLEWIGYINPYNDAPKYNEKFKGKATVTSDKSSGTAYMELSSLTSEDSAVYYCARGLGYALYYAMDYWGQGTSVTVSS
VL: DIVMTQSQKFKSTSVGDRVSVTCKASQNVGNNVAWYQQKAGQSPKALISSASNRDSGVPDRFTGSGSGTDFTLTISNVQSEDLADYFCQQYNIYPFTFGSGTKLEIKR
notes: Mouse antibody; also called mouse hAPRIL.01A antibody

From patent publication US20160264674A1 (ADURO BIOTECH HOLDINGS EUROPE B V, published 2016)
